Assay results: patent publication US20240158479A1 (RUTGERS THE STATE UNIVERSITY OF NEW JERSEY, published 2024)
Where “and” joins values, the source holds several entries; their conditions need not be identical. Equal values may be shown once. Read-outs that look alike come from different tables or passages of the source.

Assays:
Test in all cases: cell-based or functional assay
[1] = biological target: Wuhan_Hu-1 spike (B.1_614D) on pseudovirus (SARS-CoV-2, UniProt P0DTC2 14-1273)
[2] = biological target: Wuhan_Hu-1_D614G spike (B.1) on pseudovirus (SARS-CoV-2, UniProt P0DTC2 14-1273)
[3] = biological target: Omicron BA.1 spike on pseudovirus (SARS-CoV-2)
[4] = biological target: Omicron BA.2.75 spike on pseudovirus (SARS-CoV-2)
[5] = biological target: Omicron BA.2.12.1 spike on pseudovirus (SARS-CoV-2)
[6] = biological target: Omicron BA.2 spike on pseudovirus (SARS-CoV-2)
[7] = biological target: Omicron BA.1 spike on pseudovirus (SARS-CoV-2); remark: listed apart in the source
[8] = biological target: Omicron BA.4.6 spike on pseudovirus (SARS-CoV-2)
[9] = biological target: Omicron BA.4/5 spike on pseudovirus (SARS-CoV-2)
[10] = biological target: Omicron BQ.1.1 spike on pseudovirus (SARS-CoV-2)
[11] = biological target: Omicron BA.2.75 spike on pseudovirus (SARS-CoV-2); remark: listed apart in the source
[12] = biological target: Omicron BA.2.12.1 spike on pseudovirus (SARS-CoV-2); remark: listed apart in the source
[13] = biological target: Wuhan_Hu-1 spike (B.1_614D) on pseudovirus (SARS-CoV-2, UniProt P0DTC2 14-1273); remark: listed apart in the source
[14] = biological target: Wuhan_Hu-1_D614G spike (B.1) on pseudovirus (SARS-CoV-2, UniProt P0DTC2 14-1273); remark: listed apart in the source
[15] = biological target: Omicron BA.2 spike on pseudovirus (SARS-CoV-2); remark: listed apart in the source
[16] = biological target: Alpha spike (B.1.1.7) on pseudovirus (SARS-CoV-2)
[17] = biological target: Delta spike (B.1.617.2) on pseudovirus (SARS-CoV-2)
[18] = biological target: Omicron BA.1 spike on pseudovirus (SARS-CoV-2); remark: listed apart in the source
[19] = biological target: Beta spike (B.1.351) on pseudovirus (SARS-CoV-2)
[20] = biological target: Gamma spike (P.1) on pseudovirus (SARS-CoV-2)
[21] = biological target: Omicron BA.4.6 spike on pseudovirus (SARS-CoV-2); remark: listed apart in the source
[22] = biological target: Omicron BA.4/5 spike on pseudovirus (SARS-CoV-2); remark: listed apart in the source

B1: Bebtelovimab (antibody, V domains shown)
VH: QITLKESGPTLVKPTQTLTLTCTFSGFSLSISGVGVGWLRQPPGKALEWLALIYWDDDKRYSPSLKSRLTISKDTSKNQVVLKMTNIDPVDTATYYCAHHSISTIFDHWGQGTLVTVSS
VL: QSALTQPASVSGSPGQSITISCTATSSDVGDYNYVSWYQQHPGKAPKLMIFEVSDRPSGISNRFSGSKSGNTASLTISGLQAEDEADYYCSSYTTSSAVFGGGTKLTVLG
[1]
  IC50, pseudovirus neutralization: 2.8 ng/mL
[2]
  IC50, pseudovirus neutralization: 1.9 ng/mL

B2: ACOVIMAB (antibody, V domains shown)
VH: EVQLVESGPEVKKPGTSVKVSCKASGFTFTTTSSVQWVRQARGQRLEWIGWIVVGSGETEYAQNFQDRVTITSDMSTTTAYMEMSSLRSEDSAFYYCAAPYCSGGTCMDGFDLWGQGTLVSVSS
VL: EIVLTQSPGTLSLSPGERATLSCRASQSVRSNYLGWYQQKPGQAPRLLIYAASSRATGIPDRFSGSGSGTDFTLTISRLEPEDFAVYYCQQYDRSPWTFGQGTKVESKR
[3]
  IC50 vs BA1: 0.9 ng/ml and 60 pM
[4]
  IC50, pseudovirus neutralization: 1 to 3 ng/mL
[5]
  IC50, pseudovirus neutralization: 1 to 3 ng/mL
[6]
  IC50, pseudovirus neutralization: 1 to 3 ng/mL
[7]
  IC50, pseudovirus neutralization: 1 to 3 ng/mL
[8]
  IC50, pseudovirus neutralization: 150 ng/mL
[9]
  IC50, pseudovirus neutralization: 150 ng/mL and 280 ng/mL
[10]
  IC50, pseudovirus neutralization: 290 ng/mL
[11]
  IC50, pseudovirus neutralization: 3.7 ng/mL
[12]
  IC50, pseudovirus neutralization: 3.7 ng/mL
[13]
  IC50, pseudovirus neutralization: 9 ng/mL
[14]
  IC50, pseudovirus neutralization: 5.9 ng/mL
[15]
  IC50, pseudovirus neutralization: 2.9 ng/mL
[16]
  IC50, pseudovirus neutralization: 5.2 ng/mL
[17]
  IC50, pseudovirus neutralization: 5.1 ng/mL
[18]
  IC50, pseudovirus neutralization: 1.3 ng/mL
[19]
  IC50, pseudovirus neutralization: 2 ng/mL
[20]
  IC50, pseudovirus neutralization: 2.9 ng/mL
[21]
  IC50, pseudovirus neutralization: 220 ng/mL
[22]
  IC50, pseudovirus neutralization: 220 ng/mL

B3: Imdevimab (antibody, V domains shown)
VH: QVQLVESGGGVVQPGRSLRLSCAASGFTFSNYAMYWVRQAPGKGLEWVAVISYDGSNKYYADSVKGRFTISRDNSKNTLYLQMNSLRTEDTAVYYCASGSDYGDYLLVYWGQGTLVTVSS
VL: QSALTQPASVSGSPGQSITISCTGTSSDVGGYNYVSWYQQHPGKAPKLMIYDVSKRPSGVSNRFSGSKSGNTASLTISGLQSEDEADYYCNSLTSISTWVFGGGTKLTVLG
[1]
  IC50, pseudovirus neutralization: 4.8 ng/mL
[2]
  IC50, pseudovirus neutralization: 2.5 ng/mL

B4: Tixagevimab (antibody, V domains shown)
VH: QMQLVQSGPEVKKPGTSVKVSCKASGFTFMSSAVQWVRQARGQRLEWIGWIVIGSGNTNYAQKFQERVTITRDMSTSTAYMELSSLRSEDTAVYYCAAPYCSSISCNDGFDIWGQGTMVTVSS
VL: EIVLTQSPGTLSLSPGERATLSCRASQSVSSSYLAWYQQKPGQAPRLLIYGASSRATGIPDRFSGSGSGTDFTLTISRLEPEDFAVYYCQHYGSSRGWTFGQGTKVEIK
[1]
  IC50, pseudovirus neutralization: 3.2 ng/mL
[2]
  IC50, pseudovirus neutralization: 1.2 ng/mL

B5: Casirivimab (antibody, V domains shown)
VH: QVQLVESGGGLVKPGGSLRLSCAASGFTFSDYYMSWIRQAPGKGLEWVSYITYSGSTIYYADSVKGRFTISRDNAKSSLYLQMNSLRAEDTAVYYCARDRGTTMVPFDYWGQGTLVTVSS
VL: DIQMTQSPSSLSASVGDRVTITCQASQDITNYLNWYQQKPGKAPKLLIYAASNLETGVPSRFSGSGSGTDFTFTISGLQPEDIATYYCQQYDNLPLTFGGGTKVEIK
[1]
  IC50, pseudovirus neutralization: 6.2 ng/mL
[2]
  IC50, pseudovirus neutralization: 2.3 ng/mL

B6: Etesevimab (antibody, V domains shown)
VH: EVQLVESGGGLVQPGGSLRLSCAASGFTVSSNYMSWVRQAPGKGLEWVSVIYSGGSTFYADSVKGRFTISRDNSMNTLFLQMNSLRAEDTAVYYCARVLPMYGDYLDYWGQGTLVTVSS
VL: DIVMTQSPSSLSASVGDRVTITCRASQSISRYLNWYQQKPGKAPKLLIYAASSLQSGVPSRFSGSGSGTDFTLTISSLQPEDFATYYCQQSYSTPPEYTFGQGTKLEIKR
[1]
  IC50, pseudovirus neutralization: 12 ng/mL
[2]
  IC50, pseudovirus neutralization: 6.6 ng/mL

B7: Bamlanivimab (antibody, V domains shown)
VH: QVQLVQSGAEVKKPGSSVKVSCKASGGTFSNYAISWVRQAPGQGLEWMGRIIPILGIANYAQKFQGRVTITADKSTSTAYMELSSLRSEDTAVYYCARGYYEARHYYYYYAMDVWGQGTAVTVSS
VL: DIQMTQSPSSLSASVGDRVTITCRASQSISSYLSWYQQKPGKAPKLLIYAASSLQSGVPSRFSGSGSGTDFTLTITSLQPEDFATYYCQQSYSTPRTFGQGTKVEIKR
[1]
  IC50, pseudovirus neutralization: 5.3 ng/mL
[2]
  IC50, pseudovirus neutralization: 2 ng/mL
